# Results as given in patent US20240254209A1 (published 2024).
# Residue numbers refer to the chain shown, from its start.
# T1: peanut allergen Ara h 6 (peanut (Arachis hypogaea), UniProt Q647G9 22-145)
# T1 construct: also called recombinant Ara h 6
# T1 sequence (looked up): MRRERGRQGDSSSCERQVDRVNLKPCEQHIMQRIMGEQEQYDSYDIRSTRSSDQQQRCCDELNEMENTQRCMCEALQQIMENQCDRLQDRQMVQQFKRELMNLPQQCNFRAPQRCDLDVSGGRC
# T2: peanut allergen Ara h 1 (peanut (Arachis hypogaea), UniProt P43238 26-626)
# T2 construct: also called F422
# T2 sequence (looked up): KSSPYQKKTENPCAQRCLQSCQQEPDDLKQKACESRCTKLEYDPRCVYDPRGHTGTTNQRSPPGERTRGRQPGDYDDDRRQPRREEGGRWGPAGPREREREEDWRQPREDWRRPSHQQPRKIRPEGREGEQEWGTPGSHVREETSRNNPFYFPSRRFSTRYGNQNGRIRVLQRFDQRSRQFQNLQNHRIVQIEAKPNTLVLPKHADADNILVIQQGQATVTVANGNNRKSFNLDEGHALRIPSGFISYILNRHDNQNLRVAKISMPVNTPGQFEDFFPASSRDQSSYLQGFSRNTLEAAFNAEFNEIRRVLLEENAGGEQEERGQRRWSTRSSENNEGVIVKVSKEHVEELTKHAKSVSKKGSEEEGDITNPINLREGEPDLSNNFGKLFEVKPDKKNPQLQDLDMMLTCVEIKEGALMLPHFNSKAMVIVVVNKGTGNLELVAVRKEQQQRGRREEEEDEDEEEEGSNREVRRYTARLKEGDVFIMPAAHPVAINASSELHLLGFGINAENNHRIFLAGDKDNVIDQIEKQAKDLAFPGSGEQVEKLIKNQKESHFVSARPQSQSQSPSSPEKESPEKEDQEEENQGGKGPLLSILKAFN
# B1: human IgE mAb 20G11 (antibody, V domains shown)
# VH: QVQLVESGGGVVQPGGSLRLSCATSGFTFSSYGMHWVRQAPGKGLEWVAFIRYNGSNKYYADSVKGRFTISRDTSKNTLYLQMNSLRAEDSAVYYCAKDGDYDSWSGLTEHFQHWGQGTLVTVSS
# VL: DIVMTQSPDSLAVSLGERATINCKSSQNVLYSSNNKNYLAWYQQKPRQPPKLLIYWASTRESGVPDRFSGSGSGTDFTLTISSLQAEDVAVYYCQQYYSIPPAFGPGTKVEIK
# notes: human IgE from hybridoma
# B2: human IgE mAb 11F10 (antibody, V domains shown)
# VH: EVQLVESGGGLVQPGRSLRLSCAASGFTFDDYTMHWVRQAPGKGLEWVSSIRWNSGNLDYADSVKGRFTISRDNARHSLYLQMNSLRAEDTALYYCVKDNGLRTLDFWGQGTLVTVSS
# VL: DIVMTQSPLSLPVTPGEPASISCRSSQSLLHRNGYNYLDWYLQKPGQSPQLLISLASNRASGVPDRFSGSGSGTDFTLKISRVEAEDVGVYYCMQALQTWTFGQGTKVELK
# notes: human IgE from hybridoma
# B3: human IgE mAb 4G4 (antibody, V domains shown)
# VH: EVQLVQSGGGLVQPGGSLRLSCAASRFIFGSYAMSWVRQAPGKGLEWVSAISSSGGRTYYADSVKGRFTISRDNSRNTLYLQLSSLRAEDTAFYYCTKEGDTGSLWLFDSWGQGTLVTVSS
# VL: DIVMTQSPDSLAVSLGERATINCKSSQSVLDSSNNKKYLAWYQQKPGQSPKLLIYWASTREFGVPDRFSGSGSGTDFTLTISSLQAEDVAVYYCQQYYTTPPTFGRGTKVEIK
# notes: human IgE from hybridoma
# B4: human IgE mAb 15A7 (antibody, V domains shown)
# VH: QVQLVQSGPEVRKPGASVKVSCKTSGYMFTDYEMNWVRQAPGQGLEWMGLINPHSGDTGYAQKFQGRVSMTSDTSTRTFYLELTGLTSEDTAVYYCARSQGTFEVYYFVSWGQGSLVTVSS
# VL: SYVLTQPPSVSVAPGKTASITCGAKNIATKRVHWYRQKPGQAPVVVVSDEEDRSSVIPERFSGSKSGDTATLEISRVEAGDEADYYCQVWDSLADQVVFGGGTKVTVL
# notes: human IgE from hybridoma
# B5: human IgE mAb 3B7 (antibody, V domains shown)
# VH: QVQLVQSGSELKKPGASMKVSCKASGYTFTNYAMNWVRQAPGQGLEWMGWINTNTGKPTYAQGFTGRFVFSLDTSVSMAYLQISSLEAGDTAVYFCARGESLAALGSFAYWGQGTLVTVSS
# VL: DIQMTQSPSSLSASVGDRVTITCRASQSINSYLAWYQQKPGKAPNLLIYAASNLQSGVPSRFSGSGSGTDFTLTISSLQPEDFATYYCQQSSSTFWTFGQGTKVEIK
# notes: human IgE from hybridoma
# B6: human IgE mAb 26A5 (antibody, V domains shown)
# VH: QVQLVQSGSELRKPGASVKVSCKASGYTFTKYGMNWVRQAPGQGLEWMGWINTNTAKPTYAQDFTGRFVFSLDTSVNTAYLEISGLKAEDTAVYYCATDGSEGSWGQGTLVTVSS
# VL: DIQMTQSPSTLSASVGDRVTITCRASQSIGTWLAWHQQKPGTAPKVLIYKASNLKSGVPSRFSGSGSGTDFTLTISSLQPDDVATYYCQQYNTYSGTFGQGTRVEIK
# notes: human IgE from hybridoma
# B7: human IgE mAb 7B6 (antibody, V domains shown)
# VH: QVQLQQWGAGLLKPSETLSLTCAVYGGSFNGYYWSWIRQPPGKGLEWIGEIDHSGSTNYNSSLKSRVTISVDTSKNQFSLKLSSVTAADTAVYYCARRRIGSLLKYFQDWGQGTLVTVSS
# VL: SYELTQPPSVSVSPGQTASITCSGDKLGDSYVCWYQLKPGQSPVLVIYQDTKRPSGIPERFSGSNSGNTATLTISETQAMDEADYYCQAWDTTTDWVFGGGTKLTVL
# notes: human IgE from hybridoma
# B8: human IgE mAb 21C10 (antibody, V domains shown)
# VH: EVQLVESGGGLVKPGGSLRLSCAASGFILSRSSMSWVRQAPGKGLEWVSYISSTSSHIYYADSLKGRFTISRDNTENSVYLQMSSLRAEDTGVYYCARKTNGAWFLDLWGRGTLVTVSS
# VL: QSVLTQPPSVSGAPGQRVTISCTGSSSNIGAGSDVHWYQQFPGSAPHVLIYGNNQRPSGVPDRFSASKSGTSASLAITGLQADDEADYYCQSYDYDLSGSWVFGGGTKLTVL
# notes: human IgE from hybridoma
# B9: human IgE mAb 3C3 (antibody, V domains shown)
# VH: QLQLQESGPGLVKPSETLSLTCSISGASINSDDYYWGWIRQAPGEALEWIASIDASGTTFYNPSLRSRVTISVDTSTNQISLRLNSVTAADTAIYYCARRKTYYDFLTDYYNWYFDVWGRGTLVTVSS
# VL: QSALTQPRSVSGSPGQSVTFSCTGINSDIRDYDYVSWYQQHPGEAPKLIIYDVTKRASGVPSRFSGSKSGNTASLTISGLQAEDEADYYCCSYSVTYSFEVFGTGTQVSVL
# notes: human IgE from hybridoma
# B10: human IgE mAb 40C7 (antibody, V domains shown)
# VH: B3 VH with Q6E, G10D, I28S, T58A, S84N, A88G
# VL: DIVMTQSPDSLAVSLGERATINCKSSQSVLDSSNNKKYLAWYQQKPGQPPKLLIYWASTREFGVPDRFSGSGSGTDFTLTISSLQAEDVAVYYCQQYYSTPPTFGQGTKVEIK
# notes: human IgE from hybridoma
# B11: human IgE mAb 3B10 (antibody, V domains shown)
# VH: EVQLVESGGALVKPGGSLRLSCEGSGFMFSSAWLHWVRQAPGMGLELVGRMKSETDGGTLDYTAPVRGRFTISRDDSKNMFFLQMNSLKAEDTAVYYCVTGNFDYRSSPLGFWGQGALVTVSS
# VL: DIQMTQSPSTLSASAGDRVTITCRASENIYKWLAWYQQKPGKAPKLLIYKVSTLESGVPSRFSGSGFGTEFTLTISSLQPGDFATYYCQHYNSFPFTFGQGTKLEVK
# notes: human IgE from hybridoma
# B12: human IgE mAb 15C2 (antibody, V domains shown)
# VH: QVQLVQSESELKKPGASVKISCKASGYDLTKYAMNWVRQAPGQGLEWMGWINTNTAKPTYAQGFTGRFVFSLDTSVRTIYLEISNLKAEDTAIYYCSRDGSGASWGQGTLVTVSS
# VL: B6 VL with S28N, T31R, T42K, Y49T, K55E, S63T, S76T, V83F, N92T
# notes: human IgE from hybridoma
# B13: human IgE mAb 20M10 (antibody, V domains shown)
# VH: EVQLVESGGGLVKPGGSLRLSCTVSGFTFNMHSMNWVRQAPGKGLEWVSFISSTSTYIYYPDSVKGRFTVSRDNSKNSLYLQMTSLRAEDTAVYYCVRRGRGGAARALDNWGQGTLVTVSS
# VL: SYVLPQTPSLSVAPGQTATISCGGNNTGSKSVHWYQQKPGQAPLLVVYDNSDRPSGIPERFSGSNSGNTATLTLSRVEAEDEADYYCQVWDSTIDHVIFGGGTKLTVL
# notes: human IgE from hybridoma
# B14: human IgE mAb 9A11 (antibody, V domains shown)
# VH: EVQLVESGGGLVRPGGSLRLSCVASGFTFNTYWMHWVRQAPGKGLLWVSSLNKDGSSPTYADSVKGRFTISRDNTNNTLFLQLDSLRAEDTAVYYCVRDRRAVTTARYFDLWGRGTLVTVSS
# VL: DIVMTQSPESLAVSLGERATINCKSSSNIDNYLGWYQQRPGQPPKLLIYWASKRESGVPDRFSGSGSGTDFTLTIGRLQAEDVAVYYCQQYYTSPPVTFGGGTKVEIK
# notes: human IgE from hybridoma
# B15: human IgE mAb 1A8 (antibody, V domains shown)
# VH: QLQLQESGPGLVKPSETLSLTCSVSDDSISTPSYFWTWIRQPPGKGLEWIASIYYTGTTYYNPSLKSRVTLSVDTPKRQFFLRLSSVTAADTAVYYCARYLDYVWLRAFDVWGQGAMVTVSS
# VL: EIVLTQSPATLSLSPGERATLSCRASPSVGRFLAWYQQKPGQAPRLLIYDASQRATDIPARFSASGSGTDFTLTIDSLEPEDFAIYYCQHRSNWPVTFGGGTRVEIK
# notes: human IgE from hybridoma
# Molecular target: T1, peanut allergen Ara h 6
# Test: told in the text
row,Binder,binding result
1,B1,binds
2,B2,binds

# Molecular target: T3, peanut allergen Ara h 3 (peanut (Arachis hypogaea))
# T3 construct: also called F424
# Test: ImmunoCAP, hybridoma supernatant
# Method: (§1) Verification and validation of IgE mAbs peanut allergen specificity. Following the unbiased generation of IgE secreting human hybridomas from peanut allergic subject PBMCs, peanut protein binding and peanut allergen protein specificity was determined. Hybridoma culture supernatant was initially used for this validation. […] Using the available ImmunoCAP components (purified allergen proteins: Ara h 1, F422; Ara h 2, F423; Ara h 3, F424; Ara h 8 F352; Ara h 9 F427), the exact allergen specificity was determined for those which bound Ara h 1, 2, and 3.
# (§2) Hybridoma cell culture supernatant was used for initial identification of allergen specificity using ImmunoCAP analysis. Peanut reactivity was first determined using peanut ImmunoCAP. Component analysis identified IgE antibodies specific for Ara h 1, 2, and 3. All antibodies not identified in this table were determined to bind Ara h 6.
row,Binder,ImmunoCAP kUA/L [kUA/L]
1,B3,0.48
2,B4,0.14
3,B5,1.15
4,B6,0.25
5,B7,0.32
6,B8,0.83
7,B9,3460

# Molecular target: T4, peanut allergen Ara h 8 (peanut (Arachis hypogaea))
# T4 construct: ImmunoCAP component F352; also called F352
# Test: ImmunoCAP, hybridoma supernatant
# Method: as §1, §2
row,Binder,ImmunoCAP kUA/L [kUA/L]
1,B3,0.34
2,B5,0.42
3,B6,0.15
4,B7,0.29
5,B8,0.53
6,B9,0.51

# Molecular target: T5, peanut allergen Ara h 9 (peanut (Arachis hypogaea))
# T5 construct: ImmunoCAP component F427; also called F427
# Test: ImmunoCAP, hybridoma supernatant
# Method: as §1, §2
row,Binder,ImmunoCAP kUA/L [kUA/L]
1,B3,0.19
2,B5,0.25
3,B6,0.14
4,B7,0.21
5,B8,0.32
6,B9,0.46

# Molecular target: T2, peanut allergen Ara h 1
# Test: allergen specificity as listed in Table D
row,Binder,binding result
1,B10,binds
2,B11,binds

# Molecular target: T1, peanut allergen Ara h 6
# Test: Phadia ImmunoCAP and/or ELISA and Western blot
row,Binder,binding result
1,B12,binds
2,B13,binds
3,B8,binds
4,B14,binds
5,B15,binds
